Test results as given in patent US11008402 (dated 2021).
“And” between values parts separate entries of the source, which are not always exact repeats. Identical values can stand only once. Like-named read-outs stand apart in the source and are kept apart here.

Tests used:
HER3 20-358-Fc = target: T1, HER3 20-358-Fc (human); assay: ELISA
T1 chain: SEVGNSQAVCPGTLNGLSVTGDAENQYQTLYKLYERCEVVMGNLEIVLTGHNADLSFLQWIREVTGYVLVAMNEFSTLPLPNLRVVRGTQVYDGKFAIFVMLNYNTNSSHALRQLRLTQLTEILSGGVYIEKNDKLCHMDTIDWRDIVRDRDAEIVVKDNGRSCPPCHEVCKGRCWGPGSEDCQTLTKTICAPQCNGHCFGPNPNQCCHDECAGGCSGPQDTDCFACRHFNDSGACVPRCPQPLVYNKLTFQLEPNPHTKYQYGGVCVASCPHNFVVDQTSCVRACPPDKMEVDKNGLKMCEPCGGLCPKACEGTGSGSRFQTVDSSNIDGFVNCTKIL

HER3-His ECD [1] = target: HER3-His ECD (human); assay: ELISA
HER3 359-643-Fc = target: T2, HER3 359-643-Fc (human); assay: ELISA
T2 chain: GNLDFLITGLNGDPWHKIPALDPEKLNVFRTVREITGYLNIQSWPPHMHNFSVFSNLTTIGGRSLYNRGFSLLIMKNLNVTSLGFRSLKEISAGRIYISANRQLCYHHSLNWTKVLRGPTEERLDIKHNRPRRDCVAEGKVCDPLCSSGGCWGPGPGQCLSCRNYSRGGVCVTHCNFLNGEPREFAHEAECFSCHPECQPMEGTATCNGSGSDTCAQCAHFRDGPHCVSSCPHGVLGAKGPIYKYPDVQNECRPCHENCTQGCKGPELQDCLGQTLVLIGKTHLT

HER3 359-587-Fc = target: T3, HER3 359-587-Fc (human); assay: ELISA
T3 chain: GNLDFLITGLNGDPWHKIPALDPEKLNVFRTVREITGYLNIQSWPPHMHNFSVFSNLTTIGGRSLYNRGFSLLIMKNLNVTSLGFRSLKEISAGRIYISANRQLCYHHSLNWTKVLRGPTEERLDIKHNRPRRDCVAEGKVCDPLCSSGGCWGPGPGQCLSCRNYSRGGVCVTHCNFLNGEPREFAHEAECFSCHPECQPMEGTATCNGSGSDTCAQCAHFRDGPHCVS

HER3 (cell surface) [2] = target: HER3 (cell surface) (human); assay: FACS, SKBR-3
HER3 20-531-Fc = HER3 20-531-Fc (human); assay: ELISA
HER3-His ECD [3] = target: HER3-His ECD (human); assay: other, QCM Attana 25C
HER3 (cell surface) [4] = target: HER3 (cell surface) (human); assay: FACS, MCF-7
HER3 DIV-Fc = target: T4, HER3 DIV-Fc (human); assay: ELISA
T4 chain: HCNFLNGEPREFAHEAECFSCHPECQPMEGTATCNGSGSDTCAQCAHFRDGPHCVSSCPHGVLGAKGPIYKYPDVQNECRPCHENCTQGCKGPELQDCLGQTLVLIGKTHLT

HER3-His ECD [5] = target: HER3-His ECD (human); assay: ELISA; remark: listed apart in the source
HER3 (cell surface) [6] = target: HER3 (cell surface) (human); assay: FACS, FaDu
HER3 20-550-Fc = HER3 20-550-Fc (human); assay: ELISA
HER3 (cell surface) [7] = target: HER3 (cell surface) (human); assay: FACS, FaDu; remark: listed apart in the source
HER3 458-643-Fc = target: T5, HER3 458-643-Fc (human); assay: ELISA
T5 chain: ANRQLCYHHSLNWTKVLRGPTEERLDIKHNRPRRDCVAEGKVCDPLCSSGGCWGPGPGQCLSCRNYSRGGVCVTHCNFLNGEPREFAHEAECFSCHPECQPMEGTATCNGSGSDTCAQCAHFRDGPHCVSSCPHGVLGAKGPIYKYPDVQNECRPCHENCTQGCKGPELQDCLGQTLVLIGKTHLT

HER3 (cell surface) [8] = target: HER3 (cell surface) (human); assay: FACS, FaDu; remark: listed apart in the source
HER3-Fc ECD [9] = target: HER3-Fc ECD (human); assay: other, QCM Attana bivalent
HER3-Fc ECD [10] = target: HER3-Fc ECD (human); assay: ELISA
HER3 395-643-Fc = target: T6, HER3 395-643-Fc (human); assay: ELISA
T6 chain: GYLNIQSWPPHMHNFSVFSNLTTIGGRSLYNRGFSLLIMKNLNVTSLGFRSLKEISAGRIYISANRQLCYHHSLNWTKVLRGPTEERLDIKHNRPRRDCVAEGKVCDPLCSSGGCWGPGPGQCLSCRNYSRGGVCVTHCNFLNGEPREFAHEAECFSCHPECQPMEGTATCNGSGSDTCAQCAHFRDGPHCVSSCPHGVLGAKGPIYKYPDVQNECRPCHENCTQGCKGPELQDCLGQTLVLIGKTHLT

HER3-His ECD [11] = target: HER3-His ECD (human); assay: ELISA; remark: listed apart in the source
HER3 329-550-Fc = target: T7, HER3 329-550-Fc (human); assay: ELISA
T7 chain: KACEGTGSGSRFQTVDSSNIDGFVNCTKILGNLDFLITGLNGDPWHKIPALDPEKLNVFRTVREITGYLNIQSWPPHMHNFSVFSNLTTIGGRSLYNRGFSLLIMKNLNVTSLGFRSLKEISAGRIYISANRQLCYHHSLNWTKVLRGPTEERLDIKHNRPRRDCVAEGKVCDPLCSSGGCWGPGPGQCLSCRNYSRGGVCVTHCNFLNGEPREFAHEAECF

B1: IgG 3-43 (antibody, V domains shown)
VH: QVQLQQSGPGLVKPSQTLSLTCAISGDSVSSNRAAWNWIRQSPSRGLEWLGRTYYRSKWYNDYAQSLKSRITINPDTPKNQFSLQLNSVTPEDTAVYYCARDGQLGLDALDIWGQGTMVTVSS
VL: QAGLTQPPAVSVAPGQTASITCGRDNIGSRSVHWYQQKPGQAPVLVVYDDSDRPAGIPERFSGSNYENTATLTISRVEAGDEADYYCQVWGITSDHVVFGGGTKLTVLG
B1 was tested, and the binding result (HER3 20-358-Fc) was “no binding”, the EC50 (HER3-His ECD [1]) was 0.33 nM and 0.54 nM and the binding result (HER3 359-643-Fc) was “no binding”. The binding result (HER3 359-587-Fc) was “no binding”, the EC50 (HER3 (cell surface) [2]) was 0.022 nM and the binding result (HER3 20-531-Fc) was “no binding”. The Kd (HER3-His ECD [3]) was 11.2 nM, the EC50 (HER3 (cell surface) [4]) was 0.021 nM and the binding result (HER3 DIV-Fc) was “no binding”. The EC50 (HER3-His ECD [5]) was 0.23 nM, the EC50 (HER3 (cell surface) [6]) was 0.006 nM and the binding result (HER3 20-550-Fc) was “no binding”. For the same binder, the EC50 (HER3 (cell surface) [7]) was 0.003 nM, the binding result (HER3 458-643-Fc) was “no binding” and the EC50 (HER3 (cell surface) [8]) was 0.3 nM. The Kd (HER3-Fc ECD [9]) was 0.22 nM, the EC50 (HER3-Fc ECD [10]) was 0.27 nM and 0.4 nM and the binding result (HER3 395-643-Fc) was “no binding”. The EC50 (HER3-His ECD [11]) was 0.33 nM and the binding result (HER3 329-550-Fc) was “no binding”.
